From patent publication US20240132577A1 (US Dept. of Health and Human Services, published 2024)
Values joined by “and” are separate entries in the source; they are usually repeats but may differ in a detail not shown here. Equal values may be shown once.

Target: SARS-CoV-2 S protein (C-terminally truncated, on pseudotyped virus) (SARS-CoV-2 (Wuhan-Hu-1), UniProt P0DTC2 14-1254)
Experiment: cell-based or functional assay

Binder | IC50 (pseudovirus neutralization) | IC90 (pseudovirus neutralization)
Nb4 (VHH) VHH: QVQLVESGGGLVQAGGSLRLSCVASGSGFEPNAMGWYRQAPGKQRELVAGITSGGNANYADSVKGRFTISRDNVKNTVYLQMNSLKPEDTAVYYCNAVGPRFNPRGSPTNYWGQGTQVTVSS | 41 nM and 554 ng/ml | 4490 ng/ml and 332 nM
Nb21 (VHH) VHH: QVQLVESGGGLVQAGGSLRLSCAVSGLGAHRVGWFRRAPGKEREFVAAIGANGGNTNYLDSVKGRFTISRDNAKNTIYLQMNSLKPQDTAVYYCAARDIETAEYTYWGQGTQVTVSS | 1900 ng/ml and 141 nM | 3230 ng/ml and 239 nM
